Test system: peptide library, one residue held at a place counted from the S/T acceptor
Experiment: relative phosphorylation of the sub-library (ratio to the mean residue at this position); higher = residue favoured
Settings: human
How it was run: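 Purified recombinant kinases were reacted in 384-well plates with biotinylated degenerate peptide sub-libraries, each having one residue fixed at one position around a central Ser/Thr. The reaction mix contained 50 μM peptide plus 50 μM ATP spiked with γ-32P-ATP and ran for 90 min under kinase-specific conditions. Relative sub-library phosphorylation, taken from densitometry of phosphorimaged streptavidin membrane spots, is a ratio to the mean residue at that position.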

MAK, construct: Full length, sequence (P20794 whole entry, looked up): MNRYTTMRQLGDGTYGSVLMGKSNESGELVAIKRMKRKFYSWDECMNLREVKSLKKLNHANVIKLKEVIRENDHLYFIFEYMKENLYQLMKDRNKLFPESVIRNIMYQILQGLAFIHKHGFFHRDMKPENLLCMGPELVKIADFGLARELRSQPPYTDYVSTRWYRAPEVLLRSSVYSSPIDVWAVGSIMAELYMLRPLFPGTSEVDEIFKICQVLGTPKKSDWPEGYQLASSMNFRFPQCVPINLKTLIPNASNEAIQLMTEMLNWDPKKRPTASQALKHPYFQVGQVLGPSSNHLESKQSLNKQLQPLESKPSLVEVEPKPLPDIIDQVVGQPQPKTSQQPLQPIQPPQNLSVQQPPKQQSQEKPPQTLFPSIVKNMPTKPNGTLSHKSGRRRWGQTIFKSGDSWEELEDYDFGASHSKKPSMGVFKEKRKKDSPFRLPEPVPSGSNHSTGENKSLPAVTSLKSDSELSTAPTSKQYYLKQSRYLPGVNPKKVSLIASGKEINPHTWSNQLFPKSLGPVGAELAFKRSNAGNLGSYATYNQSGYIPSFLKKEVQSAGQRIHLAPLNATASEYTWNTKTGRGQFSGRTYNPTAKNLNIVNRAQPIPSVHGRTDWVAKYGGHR

MAK, construct: Full length (from UniProt P20794)
relative phosphorylation
Settings	at +1	at +2	at +3	at +4	at -1	at -2	at -3	at -4	at -5
A fixed	2.18	1.07	0.904	0.995	1.19	0.647	0.835	1.16	1.16
D fixed	0.175	1.06	0.653	0.701	0.423	0.165	0.276	0.752	0.824
E fixed	0.155	0.749	0.523	0.677	0.32	0.18	0.251	0.781	0.745
F fixed	0.321	0.762	0.858	0.704	0.498	0.159	0.201	0.633	0.864
G fixed	2.02	1.56	1.51	1.49	1.8	0.63	0.653	1.33	1.5
H fixed	0.308	1.09	1.32	1.19	0.982	0.251	0.428	0.856	0.994
I fixed	0.431	0.736	0.785	0.785	0.315	0.476	0.291	0.647	0.745
K fixed	0.324	1.01	1.37	1.21	1.92	0.779	0.872	1.06	0.989
L fixed	0.394	1.03	1.06	0.853	0.638	0.632	0.356	0.707	0.723
M fixed	0.445	0.979	0.901	0.878	1.07	0.406	0.309	0.803	0.855
N fixed	0.322	1.05	0.924	0.995	0.94	0.313	0.382	0.732	0.726
P fixed	7.71	0.986	1.21	1.36	1.51	8.65	2.32	1.8	1.9
Q fixed	0.393	0.939	0.904	0.898	1.13	0.394	0.513	0.898	1.03
R fixed	0.759	1.08	1.47	1.48	2.24	2.32	8.51	2.58	1.36
V fixed	0.455	0.907	0.978	0.877	0.63	0.631	0.302	0.81	0.821
W fixed	0.329	0.988	0.801	1.01	0.616	0.192	0.238	0.725	0.725
Y fixed	0.274	1	0.831	0.908	0.788	0.178	0.254	0.725	1.04
pThr fixed	0.401	0.534	0.748	0.735	0.265	0.377	0.408	0.851	0.905
pTyr fixed	0.326	0.839	0.706	0.678	0.338	0.212	0.365	0.759	0.912
